{"source": "patent US9980982B2", "about": "“HE4 based therapy for malignant disease” (Women & Infants Hospital of Rhode Island, priority 2011, dated 2018)", "molecules": {"B1": {"name": "recombinant HE4: exogenous recombinant human epididymal secretory protein E4 (protein)", "chain": "EKTGVCPELQADQNCTQECVSDSECADNLKCCSAGCATFCSLPNDKEGSCPQVNINFPQLGLCRDQCQVDSQCPGQMKCCRNGCGKVSCVTPNF"}}, "key": {"SKOV-3 cells": {"test_system": "SKOV-3 cells", "assay": "MTS cell viability assay, parental/wild-type SKOV-3 cells", "assay_type": "cell-based, Human", "details": "for effect of recombinant HE4 on cisplatin efficacy in SKOV-3 cells: combination or pre-treatment with HE4 (4 ng/mL in FIG. 10B) plus cisplatin", "experimental": "Cell growth and viability of cell lines (complete medium, 24 h incubation) was determined by the CellTiter 96® AQueous One Solution Assay (Promega Corp, Madison, Wis.) following the manufacturer's recommendations with modifications (Lange T S et al., 2008 PLOS One, 3(5):e2303). Experiments are expressed as the mean of triplicate determinations (X±SD) of a representative experiment in OD (cell growth) or % of absorbance by drug-treated versus untreated cells [=100%] (cell viability). Cisplatin (CDDP), paclitaxel, doxorubicin and camptothecin (CPT) were purchased from (Sigma Aldrich, St. Louis, Mo.).\nTo analyze the potential biological relevance of elevated HE4 production for ovarian cancer cells the efficacy of commonly used anticancer drugs was examined in a viability assay (FIG. 5). SKOV-3 clones or parental cells were treated with cisplatin, paclitaxel, doxorubicin, or camptothecin for 24 h in various concentrations as indicated and the cytotoxicity evaluated."}, "CaOV-3": {"test_system": "CaOV-3", "assay": "Cell viability, exogenous recombinant HE4, CaOV-3", "assay_type": "cell-based, Human"}}, "note": "“Also recorded” adds a separate entry of the source."}
{"molecule": "B1", "values": [{"measurement": "effect of recombinant HE4 on cisplatin efficacy in SKOV-3 cells", "setting": "SKOV-3 cells", "value": "enhanced the efficacy of cisplatin; also recorded: synergized or enhanced suppression of cell-viability"}, {"measurement": "effect of recombinant HE4 on cisplatin efficacy in SKOV-3 cells", "setting": "SKOV-3 cells; listed as HE4", "value": "enhanced the efficacy of cisplatin"}, {"measurement": "effect on viability of SKOV-3 cells", "setting": "SKOV-3 cells; exogenous recombinant HE4", "value": "suppressed the viability of SKOV-3 cells"}, {"measurement": "IC50", "setting": "SKOV-3 cells; proliferating ovarian cancer cells (SKOV-3), read-out: IC50, reduction of cell viability", "value": "1 to 8", "unit": "µM"}, {"measurement": "effect on viability of CaOV-3", "setting": "CaOV-3", "value": "suppressed the viability"}]}
